In a protein production outcome set (Wang et al. 2014) one finds protein production data, which are given here for 15 sequences.

A short description of this data set: label from the status in PepcDB records.
In the case of “MSRQQNEEDTNSVLFDARNEYYIGNFMGSINFVLPEQGTAGPELLSYMYLSYLAIDSGRIVASDIKEGNSTPLQALRLVHEAFEQPSRTEELLEKLTDKVAGEEDETNIWHLATAIVYCHDGQFENALKILHGSTNLESMALSVQCLLRLQRVDLAKQLVAKMQEISDDATLTQLAQAWVALAQGTEQMQDAFHIYQEFCEKFKPTPALLNGQAVVHLGLERYEEADSVLRESLLKKHNDYDTLINLMVHAHLTGKPTEAITRNLEQLRQFYPKSDFVTDLDKKSAEFDRLCLQYDVEGGEKLLAV”, the protein production result is “failed”.

Turning to “MGSLGFLAGGVMPLEQLKQELSEVKGVFGVNLFRPQTDAPKPSDIDELAGLLSSAFRQFGLDEPTVPTPDLSNGWEAKFEAVLAAKPAVFSCTFGIFSAEEFARIKATGIEAWVTVTNPEDALAAQKAGANALVVQGPEAGGHRSTWSIEVEPDERDLKTLLAAVKQAGVYLPLIAAGGLSTSADVAAILEAGASAASCGSAFLLSDEAGTSSLNREILDAAPALGLESVSSRAFSGRYARGVETRFTRSNEGLPPLYPYLNPMITSLRKVAGSAGNWDYAYCLVGVGLESIAKGSAKQILESLTPSALEHHHHHH”, the protein production entry was “failed”.

Turning to “MALMTNKTRALLIGGHGKVALLATPMLIDASVQVTSMYRNPDHRSEIEALGATTLERDVTTLSVEDWADLLKDFDVVVWSAGNGGKNGADATYAIDRDAAIASIDGAASLGEKAPRYIMVSYIGSSTHTIDPSASFYPYAESKKAADEHLSSTNLDYLILAPAALTLDEVNGVEVIADTNEAAAGRTTSRVLVAEVITEFVVRDFPQTRVLPFVDGLEHHHHHH”, the protein production result is “failed”.

Regarding “MNMGKKIQEMAVWLEFLVGSGLAIFFHLVLHYEQAAYVIFGIGILLALGTYLIREEIEKNRSHLVEQYQQAHEIPFAMAGIADPECLAKAHELIAGTRRTITILQQGYIPLDENEFYLEGAKLSDQAVREIRAVDPLMAGWWTRGALVNFYQANLRALDRGVRIRRIFVVNREELGEPEVQKVLLSHYRDDIDIRIVYRDELPAAGEIIGRDTNSSFDFALYDDRVATDVFAHPGKYYGRKTAQPMEVAKYRHLYELIEHSAHTVSEDGDRIVPSAEVMPLAS”, the protein production result is “failed”.

Regarding “MAPDNDHFLDSPSPPLLEMRHHQSATENGGGCGEIVEVQGGHIVRSTGRKDRHSKVCTAKGPRDRRVRLSAPTAIQFYDVQDRLGFDRPSKAVDWLITKAKSAIDDLAQLPPWNPADTLRQHAAAAANAKPRKTKTLISPPPPQPEETEHHRIGEEEDNESSFLPASMDSDSIADTIKSFFPVASTQQSYHHQPPSRGNTQNQDLLRLSLQSFQNGPPFPNQTEPALFSGQSNNQLAFDSSTASWEQSHQSPEFGKIQRLVSWNNVGAAESAGSTGGFVFASPSSLHPVYSQSQLLSQRGPLQSINTPMIRAWFDPHHHHHHHQQSMTTDDLHHHHPYHIPPGIHQSAIPGIAFASSGEFSGFRIPARFQGEQEEHGGDNKPSSASSDSRH”, the protein production result is recorded as “failed”.

In the case of “MDKQSSAGGVKRSVPCESNEVNETMPETPTGDSDPQPAPKKMKTSESSTILVVRYRRNVKRTSPEELLNDHARENRINPLQMEEEEFMEIMVEIPAK”, the protein production entry is given as “failed”.

On to “MSLKNMADLSYVNIFTRDIVAMSAFYQQVFGFQEIESIRSPIFRGLDTGKSCIGFNAHEAYELMQLAQFSETSGIKFLLNFDVDTKEAVDKLVPVAIAAGATLIKAPYETYYHWYQAVLLDPERNVFRINNVLEGHHHHHH”, for which the protein production entry is “not failed”.

Take “MSKAVLTTKVTPGYKDLPEVRYHFPRTYLNQVRQAVGDYILYYEPRRTTVELSSFGGRQSYFGVARVVDLVEDKDQADHYYALVDDYLDFDRPVPFVEGGHYYESALRKSDGSTNKGAFGRAVRLIPDAEFDQIWKAGFAPILGEETSRHQPRQFEISEPTVPFERPIIEMTISRPFRERSFMYNVRAAYENRCAMTGLRLINGGGRPEVQAAHIQPVAEKGPDSVRNGLALSGTVHWMFDRGLISIGDDYKILTAENHVPDDALRLLNHSRTINLPNDTAFYPNALFLKFHRDKIFKG”: the protein production entry is reported as “failed”.

In the case of “MPITSSSETFASFFNDWLCRHRQFVQQLAHLADETTIVTPIEEESLVSNFLSHYLQYYEEKSVAMSVAGDDIYDFFSPPWLSSYEKLILWIGGFKPGMVFKLITTSVNDLTSHQIDQLESIRLETKRRERDLMRRFALLQQSVGDPLLMVPFRRIGVLRLGEGEQPEMEDAMEVLKVEMIKAMKNADQLRCVTVGKVVEVLNPRQSIKLLRAAGEFYLRLRDLGV”, the protein production result is given as “failed”.

With “MRRSSSKKKSGQSTESVTTDLFRSASSKASNKEMDRIDHLFNQYANKSSSLIDPEGIEELCSNLEVSHTDIRILMLAWKMKAEKQGYFTHISFPDMGDYNPELAWPLILDNFVEWIQEKQA”, the protein production result was “failed”.

As to “MTAKPTIAFSHLGCEKNRIDTEHMIGLLAEAGYGIDANEALADVVVVNTCSFIQAAREESVRTLVELAESGKKIVIAGCLAQHFQDQLLAELPEAIALVGTGDYHRIVDVLQRTESGERVNAISQEPSFIADENLPRYRTTTSAVAYLRVAEGCDYRCAFCIIPHLRGKQRSRSIESIVAEAKQLAAEGVQELVLISQITTNYGLDRYGKPMLAELLRQLGQVDVPWIRIHYAYPTGLTPEVIAAIRETHNVLPYLDLPLQHSHPEILKAMNRPWQGNVNDRIIEKLKEALPDAVLRTTFIAGFPGETEEHFRHLQQFIQRHEFDHVGVFAFSPEEGTAAIDLPNPVPDDVKEARRDALMATQQPIAERRNRAQIGRLVDVLIEQEHPSTGLKIGRSARFAPEVDGVVYVQGDAALGQLVTVRITDADIYDLHGEVASAADLFQASRQPSLA”, the protein production result is “failed”.

Consider “MDVKQTLEKAIALRQNKRYQESNAILVTLCKEHAHDPQILYQCGWSFDVLGLEAQAVPYYEKAIASGLQGKDLAECYLGLGSTFRTLGEYRKAEAVLANGVKQFPNHQALRVFYAMVLYNLGRYEQGVELLLKIIAETSDDETIQSYKQAILFYADKLDETWKALEHHHHHH”, for which the protein production result is listed as “not failed”.

Consider “MEQGAATADKEDFNARGKPTLFQLSFPLLLHSLLSFFVNLADTAIISAYSAEAAAAVAVAKQVMMIAFELSGLVGIGAVIVISRHLGRGEVEAARQVVAVALLTNTLVGLALGLSLMVAGPLVLEQLAGSTSLNDEAGLYLNIVAVGMVFNGFIAAGLACLRAFGHSRLILAFGVGVSAFYLLAEWVLILGVGPLPGMGVKGAALGTFSIRVMTTAILTPVLMWKLGLRFSFSDTVARFATARRMIAIALPSVTDYIAYSFYQIILLGLVARFGVEAVLGRTYTMLAMAFLIVVVMAISQSNEVLIGYRFGERRLEAATSQALRSASLAAAATTSIATLIWLASVPYIRLFTDNPAVIELCGSLLFLTIFIQPGFAFNTILFQSLRAVGDVRWPVFVSLTVTWGLGLSTAWFFCLFLNLGVTGVWLSLIIEETVKGSLFLHRWLSRGVRHEAG”, for which the protein production entry is “failed”.

With “MSGQTFEKIGGMFLDKQRKEGKSKATLDKTAYHLKLANHDFGKKPITAITAPMILRTLRKVEAKGNYETAHRLRARIGSVFRYAVASGLAETDPTYALRDALIRPTRQHLEHHHHHH”, the protein production entry was “failed”.

“MGTALVYHEDMTATRLLWDDPECEIECPERLTAALDGLRQRGLEERCLCLSACEASEEELGLVHSPEYIALVQKTQTLDKEELHALSKQYDAVYFHPDTFHCARLAAGAALQLVDAVLTGAVHNGLALVRPPGHHSQRAAANGFCVFNNVALAAKHAKQKYGLQRILIVDWDVHHGQGIQYIFNDDPSVLYFSWHRYEHGSFWPFLPESDADAVGQGQGQGFTVNLPWNQVGMGNADYLAAFLHVLLPLAFEFDPELVLVSAGFDSAIGDPEGQMQATPECFAHLTQLLQVLAGGRICAVLEGGYHLESLAQSVCMMVQTLLGDPTPPLLGLMVPCQSALESIQSVQTAQTPYWTSLQQNVAPVLSSSTHSPEERSLRLLGESPTCAVAEDSLSPLLDQLCLRPAPPICTAVASTVPGAALCLPPGVLHQEGSVLREETEAWARLHKSRFQDEDLATLGKILCLLDGIMDGQIRNAIATTTALATAATLDVLIQRCLARRAQRVLCVALGQLDRPLDLADDGRILWLNIRGKDAAIQSMFHFSTPLPQTTGGFLSLILGLVLPLAYGFQPDMVLMALGPAHGLQNAQAALLAAMLRSPVGGRILAVVEEESIRLLARSLAQALHGETPPSLGPFSKATPEEIQALMFLKARLEARWKLLQVAAPPP”: the protein production entry was “failed”.
